Molecular target: T1, glypican-3 (GPC3) peptide on HLA-A*02:01 (human)
T1 peptide: FIDKKVLKV
Assay: multimer staining

- binding result: recognises
B1: TCR P1-1 (TCR, V domains shown)
Valpha: AQSVTQPDIHITVSEGASLELRCNYSYGATPYLFWYVQSPGQGLQLLLKYFSGDTLVQGIKGFEAEFKRSQSSFNLRKPSVHWSDAAEYFCAVGVLNFGNEKLTFGTGTRLTIIP
Vbeta: SQTIHQWPATLVQPVGSPLSLECTVEGTSNPNLYWYRQAAGRGLQLLFYSVGIGQISSEVPQNLSASRPQDRQFILSSKKLLLSDSGFYLCAWSEDTAYYGYTFGSGTRLTVV
